Consider 20 molecules from patent publication US20150147274A1 (CANCER RESEARCH TECHNOLOGY, published 2015).

The target in this test is T1, MET928 (cMET protein derived from construct 25-928) (human, UniProt P08581 25-928).
T1 construct: MET ectodomain, residues 1-24 are the leader; produced in Lec 8 cells; background text says the ectodomain is furin-cleaved into alpha (25-307) and beta chains; biotinylated form used in selections; also called MET928 extracellular domain; Met extracellular domain
T1 sequence (P08581 25-928): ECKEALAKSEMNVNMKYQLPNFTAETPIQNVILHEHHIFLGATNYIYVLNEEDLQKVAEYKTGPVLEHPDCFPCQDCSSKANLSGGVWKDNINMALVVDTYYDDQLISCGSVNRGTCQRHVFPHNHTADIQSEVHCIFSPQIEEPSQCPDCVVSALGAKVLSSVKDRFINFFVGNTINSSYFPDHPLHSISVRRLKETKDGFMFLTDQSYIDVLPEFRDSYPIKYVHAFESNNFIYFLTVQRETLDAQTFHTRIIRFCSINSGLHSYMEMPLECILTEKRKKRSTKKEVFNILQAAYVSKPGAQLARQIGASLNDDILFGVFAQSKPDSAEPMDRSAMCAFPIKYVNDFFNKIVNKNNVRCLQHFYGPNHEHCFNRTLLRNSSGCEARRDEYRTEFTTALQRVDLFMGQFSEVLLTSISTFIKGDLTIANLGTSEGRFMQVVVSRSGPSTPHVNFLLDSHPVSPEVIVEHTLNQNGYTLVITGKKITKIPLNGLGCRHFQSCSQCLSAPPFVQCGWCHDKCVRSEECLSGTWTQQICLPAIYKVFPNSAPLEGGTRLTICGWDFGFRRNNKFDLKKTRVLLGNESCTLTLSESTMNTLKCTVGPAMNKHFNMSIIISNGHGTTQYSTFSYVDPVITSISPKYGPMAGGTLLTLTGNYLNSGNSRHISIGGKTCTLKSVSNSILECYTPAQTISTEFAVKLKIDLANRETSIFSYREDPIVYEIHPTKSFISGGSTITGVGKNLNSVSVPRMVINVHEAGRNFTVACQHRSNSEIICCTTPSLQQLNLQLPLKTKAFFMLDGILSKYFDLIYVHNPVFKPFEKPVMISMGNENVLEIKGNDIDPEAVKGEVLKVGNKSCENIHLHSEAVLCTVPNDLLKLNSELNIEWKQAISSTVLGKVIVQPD
The experiment in a line: ELISA, soluble scFv. (ELISA stands for enzyme-linked immunosorbent assay.)

B1: 112_H2 (scFv)
scFv: QMQLVQSGAEVKKPGAPVKVSCKVSGYTFTDYYMHWVQQAPGKGLEWMGLVDPEDGETIYAEKFQGRVTITADTSTDTAYMELSSLRSEDTAVYYCATDATTPYWGMQVWGQGTLVTVSSLEGGGGSGGGGSGGGASDIQMTQSPSSLSASVGDRVTITCQASQDISNYLNWYQQKPGRAPKVLIYDASNLETGVPSRFSGSGSGTEFTLTISNLRPDDFATYYCQQGDSFPLTFGGGTKVEIK
notes: not shown: 6xHis/tri-FLAG tags
With B1, the binding result is recorded as “binds”.

B2: 107_B3 (scFv)
scFv: QMQLVQSGAEVKKPGAPVKVSCKVSGYTFTDYYMHWVQQAPGKGLEWMGLVDPEDGETIYAEKFQGRVTITADTSTDTAYMELSSLRSEDTAVYYCATDATTPYWGMKMWGQGTLVTVSSLEGGGGSGGGGSGGGASDIQMTQSPSSLSASVGDRVTITCQASQDISNYLNWYQQKPGRAPKVLIYDASNLETGVPSRFSGSGSGTEFTLTISNLRPDDFATYYCQQGDSFPLTFGGGTKVEIK
notes: as for B1
B2: the binding result is recorded as “binds”.

B3: 107_B8 (scFv)
scFv: QMQLVQSGAEVKKPGAPVKVSCKVSGYTFTDYYMHWVQQAPGKGLEWMGLVDPEDGETIYAEKFQGRVTITADTSTDTAYMELSSLRSEDTAVYYCATDATTPYWGMAEWGQGTLVTVSSLEGGGGSGGGGSGGGASDIQMTQSPSSLSASVGDRVTITCQASQDISNYLNWYQQKPGRAPKVLIYDASNLETGVPSRFSGSGSGTEFTLTISNLRPDDFATYYCQQGDSFPLTFGGGTKVEIK
notes: as for B1
In the case of B3, the binding result was “binds”.

B4: 107_B6 (scFv)
scFv: QMQLVQSGAEVKKPGAPVKVSCKVSGYTFTDYYMHWVQQAPGKGLEWMGLVDPEDGETIYAEKFQGRVTITADTSTDTAYMELSSLRSEDTAVYYCATDATTPYWGMQKWGQGTLVTVSSLEGGGGSGGGGSGGGASDIQMTQSPSSLSASVGDRVTITCQASQDISNYLNWYQQKPGRAPKVLIYDASNLETGVPSRFSGSGSGTEFTLTISNLRPDDFATYYCQQGDSFPLTFGGGTKVEIK
notes: as for B1
As for B4, the binding result is on record as “binds”.

B5: 107_A4 (scFv)
scFv: QMQLVQSGAEVKKPGAPVKVSCKVSGYTFTDYYMHWVQQAPGKGLEWMGLVDPEDGETIYAEKFQGRVTITADTSTDTAYMELSSLRSEDTAVYYCATDATTPYWFPYHWGQGTLVTVSSLEGGGGSGGGGSGGGASDIQMTQSPSSLSASVGDRVTITCQASQDISNYLNWYQQKPGRAPKVLIYDASNLETGVPSRFSGSGSGTEFTLTISNLRPDDFATYYCQQGDSFPLTFGGGTKVEIK
notes: as for B1
B5: the binding result is listed as “binds”.

B6: 107_B4 (scFv)
scFv: QMQLVQSGAEVKKPGAPVKVSCKVSGYTFTDYYMHWVQQAPGKGLEWMGLVDPEDGETIYAEKFQGRVTITADTSTDTAYMELSSLRSEDTAVYYCATDATTPYWFPNVWGQGTLVTVSSLEGGGGSGGGGSGGGASDIQMTQSPSSLSASVGDRVTITCQASQDISNYLNWYQQKPGRAPKVLIYDASNLETGVPSRFSGSGSGTEFTLTISNLRPDDFATYYCQQGDSFPLTFGGGTKVEIK
notes: as for B1
Regarding B6, the binding result is on record as “binds”.

B7: 107_B1 (scFv)
scFv: QMQLVQSGAEVKKPGAPVKVSCKVSGYTFTDYYMHWVQQAPGKGLEWMGLVDPEDGETIYAEKFQGRVTITADTSTDTAYMELSSLRSEDTAVYYCATDATHIYWNMDIWGQGTLVTVSSLEGGGGSGGGGSGGGASDIQMTQSPSSLSASVGDRVTITCQASQDISNYLNWYQQKPGRAPKVLIYDASNLETGVPSRFSGSGSGTEFTLTISNLRPDDFATYYCQQGDSFPLTFGGGTKVEIK
notes: as for B1
In the case of B7, the binding result is recorded as “binds”.

B8: 107_A9 (scFv)
scFv: QMQLVQSGAEVKKPGAPVKVSCKVSGYTFTDYYMHWVQQAPGKGLEWMGLVDPEDGETIYAEKFQGRVTITADTSTDTAYMELSSLRSEDTAVYYCATDATTPYWGMMTWGQGTLVTVSSLEGGGGSGGGGSGGGASDIQMTQSPSSLSASVGDRVTITCQASQDISNYLNWYQQKPGRAPKVLIYDASNLETGVPSRFSGSGSGTEFTLTISNLRPDDFATYYCQQGDSFPLTFGGGTKVEIK
notes: as for B1
As for B8, the binding result was “binds”.

B9: 107_A12 (scFv)
scFv: QMQLVQSGAEVKKPGAPVKVSCKVSGYTFTDYYMHWVQQAPGKGLEWMGLVDPEDGETIYAEKFQGRVTITADTSTDTAYMELSSLRSEDTAVYYCATDATTPYWWMAKWGQGTLVTVSSLEGGGGSGGGGSGGGASDIQMTQSPSSLSASVGDRVTITCQASQDISNYLNWYQQKPGRAPKVLIYDASNLETGVPSRFSGSGSGTEFTLTISNLRPDDFATYYCQQGDSFPLTFGGGTKVEIK
notes: as for B1
B9: the binding result is on record as “binds”.

B10: 107_B2 (scFv)
scFv: QMQLVQSGAEVKKPGAPVKVSCKVSGYTFTDYYMHWVQQAPGKGLEWMGLVDPEDGETIYAEKFQGRVTITADTSTDTAYMELSSLRSEDTAVYYCATDATTPYWGMQMWGQGTLVTVSSLEGGGGSGGGGSGGGASDIQMTQSPSSLSASVGDRVTITCQASQDISNYLNWYQQKPGRAPKVLIYDASNLETGVPSRFSGSGSGTEFTLTISNLRPDDFATYYCQQGDSFPLTFGGGTKVEIK
notes: as for B1
As to B10, the binding result is listed as “binds”.

B11: 107_A3 (scFv)
scFv: QMQLVQSGAEVKKPGAPVKVSCKVSGYTFTDYYMHWVQQAPGKGLEWMGLVDPEDGETIYAEKFQGRVTITADTSTDTAYMELSSLRSEDTAVYYCATDATTAYWGMQKWGQGTLVTVSSLEGGGGSGGGGSGGGASDIQMTQSPSSLSASVGDRVTITCQASQDISNYLNWYQQKPGRAPKVLIYDASNLETGVPSRFSGSGSGTEFTLTISNLRPDDFATYYCQQGDSFPLTFGGGTKVEIK
notes: as for B1
In the case of B11, the binding result was “binds”.

B12: 107_B11 (scFv)
scFv: QMQLVQSGAEVKKPGAPVKVSCKVSGYTFTDYYMHWVQQAPGKGLEWMGLVDPEDGETIYAEKFQGRVTITADTSTDTAYMELSSLRSEDTAVYYCATDATTPYWGMAMWGQGTLVTVSSLEGGGGSGGGGSGGGASDIQMTQSPSSLSASVGDRVTITCQASQDISNYLNWYQQKPGRAPKVLIYDASNLETGVPSRFSGSGSGTEFTLTISNLRPDDFATYYCQQGDSFPLTFGGGTKVEIK
notes: as for B1
Turning to B12, the binding result is recorded as “binds”.

B13: 107_B5 (scFv)
scFv: QMQLVQSGAEVKKPGAPVKVSCKVSGYTFTDYYMHWVQQAPGKGLEWMGLVDPEDGETIYAEKFQGRVTITADTSTDTAYMELSSLRSEDTAVYYCATDATTPYWGMQIWGQGTLVTVSSLEGGGGSGGGGSGGGASDIQMTQSPSSLSASVGDRVTITCQASQDISNYLNWYQQKPGRAPKVLIYDASNLETGVPSRFSGSGSGTEFTLTISNLRPDDFATYYCQQGDSFPLTFGGGTKVEIK
notes: as for B1
With B13, the binding result is on record as “binds”.

B14: 107_B7 (scFv)
scFv: QMQLVQSGAEVKKPGAPVKVSCKVSGYTFTDYYMHWVQQAPGKGLEWMGLVDPEDGETIYAEKFQGRVTITADTSTDTAYMELSSLRSEDTAVYYCATDATTPYWCMRAWGQGTLVTVSSLEGGGGSGGGGSGGGASDIQMTQSPSSLSASVGDRVTITCQASQDISNYLNWYQQKPGRAPKVLIYDASNLETGVPSRFSGSGSGTEFTLTISNLRPDDFATYYCQQGDSFPLTFGGGTKVEIK
notes: as for B1
In the case of B14, the binding result is given as “binds”.

B15: 107_A2 (scFv)
scFv: QMQLVQSGAEVKKPGAPVKVSCKVSGYTFTDYYMHWVQQAPGKGLEWMGLVDPEDGETIYAEKFQGRVTITADTSTDTAYMELSSLRSEDTAVYYCATDATTPYWGMQSWGQGTLVTVSSLEGGGGSGGGGSGGGASDIQMTQSPSSLSASVGDRVTITCQASQDISNYLNWYQQKPGRAPKVLIYDASNLETGVPSRFSGSGSGTEFTLTISNLRPDDFATYYCQQGDSFPLTFGGGTKVEIK
notes: as for B1
B15: the binding result is “binds”.

B16: 107_A10 (scFv)
scFv: QMQLVQSGAEVKKPGAPVKVSCKVSGYTFTDYYMHWVQQAPGKGLEWMGLVDPEDGETIYAEKFQGRVTITADTSTDTAYMELSSLRSEDTAVYYCATDATTPYWGMQEWGQGTLVTVSSLEGGGGSGGGGSGGGASDIQMTQSPSSLSASVGDRVTITCQASQDISNYLNWYQQKPGRAPKVLIYDASNLETGVPSRFSGSGSGTEFTLTISNLRPDDFATYYCQQGDSFPLTFGGGTKVEIK
notes: as for B1
In the case of B16, the binding result is recorded as “binds”.

B17: 107_A6 (scFv)
scFv: QMQLVQSGAEVKKPGAPVKVSCKVSGYTFTDYYMHWVQQAPGKGLEWMGLVDPEDGETIYAEKFQGRVTITADTSTDTAYMELSSLRSEDTAVYYCATDATTPYWTPFVWGQGTLVTVSSLEGGGGSGGGGSGGGASDIQMTQSPSSLSASVGDRVTITCQASQDISNYLNWYQQKPGRAPKVLIYDASNLETGVPSRFSGSGSGTEFTLTISNLRPDDFATYYCQQGDSFPLTFGGGTKVEIK
notes: as for B1
Take B17: the binding result is given as “binds”.

B18: 107_A11 (scFv)
scFv: QMQLVQSGAEVKKPGAPVKVSCKVSGYTFTDYYMHWVQQAPGKGLEWMGLVDPEDGETIYAEKFQGRVTITADTSTDTAYMELSSLRSEDTAVYYCATDATTPYWGMAWWGQGTLVTVSSLEGGGGSGGGGSGGGASDIQMTQSPSSLSASVGDRVTITCQASQDISNYLNWYQQKPGRAPKVLIYDASNLETGVPSRFSGSGSGTEFTLTISNLRPDDFATYYCQQGDSFPLTFGGGTKVEIK
notes: as for B1
For the molecule B18, the binding result was “binds”.

B19: 107_B10 (scFv)
scFv: QMQLVQSGAEVKKPGAPVKVSCKVSGYTFTDYYMHWVQQAPGKGLEWMGLVDPEDGETIYAEKFQGRVTITADTSTDTAYMELSSLRSEDTAVYYCATDATTPYWGMRVWGQGTLVTVSSLEGGGGSGGGGSGGGASDIQMTQSPSSLSASVGDRVTITCQASQDISNYLNWYQQKPGRAPKVLIYDASNLETGVPSRFSGSGSGTEFTLTISNLRPDDFATYYCQQGDSFPLTFGGGTKVEIK
notes: as for B1
On to B19, for which the binding result is recorded as “binds”.

B20: 107_A5 (scFv)
scFv: QMQLVQSGAEVKKPGAPVKVSCKVSGYTFTDYYMHWVQQAPGKGLEWMGLVDPEDGETIYAEKFQGRVTITADTSTDTAYMELSSLRSEDTAVYYCATDATTPYWGMSKWGQGTLVTVSSLEGGGGSGGGGSGGGASDIQMTQSPSSLSASVGDRVTITCQASQDISNYLNWYQQKPGRAPKVLIYDASNLETGVPSRFSGSGSGTEFTLTISNLRPDDFATYYCQQGDSFPLTFGGGTKVEIK
notes: as for B1
In the case of B20, the binding result is “binds”.
